# Laboratory results: patent US20090081207A1 (published 2009)
# “And” between values parts separate entries of the source, which are not always exact repeats. Equal entries are not always repeated.
# B1: MOR04624 Fab (Fab, V domains shown)
# VH: QVQLVESGGGLVQPGGSLRLSCAASGFTFSSYGMSWVRQAPGKGLEWVSSISYSDSNTYYADSVKGRFTISRDNSKNTLYLQMNSLRAEDTAVYYCARGLGDYGHHHGLSGIFDYWGQGTLVTVSS
# VL: DIQMTQSPSSLSASVGDRVTITCRASQGISSNLNWYQQKPGKAPKLLIYAASNLQSGPSRFSGSGSGTDFTLTISSLQPEDFAVYYCQQYSDQSYTFGQGTKVEIKR
# notes: HuCAL GOLD monovalent Fab, kappa
# B2: MOR04975 IgG4-Pro (antibody, V domains shown)
# VH: QVQLVESGGGLVQPGGSLRLSCAASGFTFSSYGMSWVRQAPGKGLEWVSGIRAKQSGYATDYAAPVKGRFTISRDNSKNTLYLGMNSLRAEDTAVYYCARGLGDYGHHHGLSGIFDYWGQGTLVTVSS
# VL: DIQMTQSPSSLSASVGDNVTITCRASQGISSNLNWYQQKPGKAPKLLIYAASNLQSGPSRFSGSGSGTDFTLTISSLQPEDFATYYCQQYEFGIQTFGQGTKVEIKR
# B3: MOR04977 IgG4-Pro (antibody, V domains shown)
# VH: QVQLVESGGGLVQPGGSLRLSCAASGFTFSSYGMSWVRQAPGKGLEWVSFIEPKWRGGATHYAASVKGRFTISRDNSKNTLYLQMNSLRAEDTAVYYCARGLGDYGHHHGLSGIFDYWGQGTLVTVSS
# VL: DIQMTQSPSSLSASVGDRVTITCRASQGISSNLNWYQQKPGKAPKLLIYAASNLQSGPSRFSGSGSGTDFTLTISSLQPEDFATYYCQQYSSNPQTFGQGTKVEIKR
# B4: MOR04974 IgG4-Pro (antibody, V domains shown)
# VH: QVQLVESGGGLVQPGGSLRLSCAASGFTFSSYGMSWVRQAPGKGLEWVSGIRAKQSGYATDYAAPVKGRFTISRDNSKNTLYLGMNSLRAEDTAVYYCARGLGDYGHHHGLSGIFDYWGQGTLVTVSS
# VL: DIQMTGSPSSLSASVGDRVTITCRASQGISSNLNWYQQKPGKAPKLLIYAASNLQSGPSRFSGSGSGTDFTLTISSLQPEDFATYYCQQYASPRQTFGQGTKVEIKR
# B5: MOR04624 IgG1 (antibody, V domains shown)
# VH: QVQLVESGGGLVQPGGSLRLSCAASGFTFSSYGMSWVRQAPGKGLEWVSSISYSDSNTYYADSVKGRFTISRDNSKNTLYLQMNSLRAEDTAVYYCARGLGDYGHHHGLSGIFDYWGQGTLVTVSS
# VL: DIQMTQSPSSLSASVGDRVTITCRASQGISSNLNWYQQKPGKAPKLLIYAASNLQSGPSRFSGSGSGTDFTLTISSLQPEDFAVYYCQQYSDQSYTFGQGTKVEIKR
# notes: Human IgG1 kappa (MorphoSys HuCAL IgG Vector Kit); also called IgG1 MOR04624
# B6: MOR04974 Fab (Fab, V domains shown)
# VH: QVQLVESGGGLVQPGGSLRLSCAASGFTFSSYGMSWVRQAPGKGLEWVSGIRAKQSGYATDYAAPVKGRFTISRDNSKNTLYLQMNSLRAEDTAVYYCARGLGDYGHHHGLSGIFDYWGQGTLVTVSS
# VL: DIQMTQSPSSLSASVGDRVTITCRASQGISSNLNWYQQKPGKAPKLLIYAASNLQSGPSRFSGSGSGTDFTLTISSLQPEDFATYYCQQYASPRQTFGQGTKVEIKR
# B7: MOR04975 IgG1 (antibody, V domains shown)
# VH: QVQLVESGGGLVQPGGSLRLSCAASGFTFSSYGMSWVRQAPGKGLEWVSGIRAKQSGYATDYAAPVKGRFTISRDNSKNTLYLQMNSLRAEDTAVYYCARGLGDYGHHHGLSGIFDYWGQGTLVTVSS
# VL: DIQMTQSPSSLSASVGDRVTITCRASQGISSNLNWYQQKPGKAPKLLIYAASNLQSGPSRFSGSGSGTDFTLTISSLQPEDFATYYCQQYEFGIQTFGQGTKVEIKR
# B8: MOR04985 IgG1 (antibody, V domains shown)
# VH: QVQLVESGGGLVQPGGSLRLSCAASGFTFSSYGMSWVRQAPGKGLEWVSGIRAKQSGYATDYAAPVKGRFTISRDNSKNTLYLQMNSLRAEDTAVYYCARGLGDYGHHHGLSGIFDYWGQGTLVTVSS
# VL: DIQMTQSPSSLSASVGDRVTITCRASQGISSNLNWYQQKPGKAPKLLIYAASNLQSGPSRFSGSGSGTDFTLTISSLQPEDFAVYYCQQYSDQSYTFGQGTKVEIKR
# B9: MOR04975 Fab (Fab, V domains shown)
# VH: QVQLVESGGGLVQPGGSLRLSCAASGFTFSSYGMSWVRQAPGKGLEWVSGIRAKQSGYATDYAAPVKGRFTISRDNSKNTLYLQMNSLRAEDTAVYYCARGLGDYGHHHGLSGIFDYWGQGTLVTVSS
# VL: DIQMTQSPSSLSASVGDRVTITCRASQGISSNLNWYQQKPGKAPKLLIYAASNLQSGPSRFSGSGSGTDFTLTISSLQPEDFATYYCQQYEFGIQTFGQGTKVEIKR
# notes: also called MQR04975
# B10: MOR04977 IgG1 (antibody, V domains shown)
# VH: QVQLVESGGGLVQPGGSLRLSCAASGFTFSSYGMSWVRQAPGKGLEWVSFIEPKWRGGATHYAASVKGRFTISRDNSKNTLYLQMNSLRAEDTAVYYCARGLGDYGHHHGLSGIFDYWGQGTLVTVSS
# VL: DIQMTQSPSSLSASVGDRVTITCRASQGISSNLNWYQQKPGKAPKLLIYAASNLQSGPSRFSGSGSGTDFTLTISSLQPEDFATYYCQQYSSNPQTFGQGTKVEIKR
# B11: MOR04977 Fab (Fab, V domains shown)
# VH: QVQLVESGGGLVQPGGSLRLSCAASGFTFSSYGMSWVRQAPGKGLEWVSFIEPKWRGGATHYAASVKGRFTISRDNSKNTLYLQMNSLRAEDTAVYYCARGLGDYGHHHGLSGIFDYWGQGTLVTVSS
# VL: DIQMTQSPSSLSASVGDRVTITCRASQGISSNLNWYQQKPGKAPKLLIYAASNLQSGPSRFSGSGSGTDFTLTISSLQPEDFATYYCQQYSSNPQTFGQGTKVEIKR
# B12: MOR04985 Fab (Fab, V domains shown)
# VH: QVQLVESGGGLVQPGGSLRLSCAASGFTFSSYGMSWVRQAPGKGLEWVSGIRAKQSGYATDYAAPVKGRFTISRDNSKNTLYLQMNSLRAEDTAVYYCARGLGDYGHHHGLSGIFDYWGQGTLVTVSS
# VL: DIQMTQSPSSLSASVGDRVTITCRASQGISSNLNWYQQKPGKAPKLLIYAASNLQSGPSRFSGSGSGTDFTLTISSLQPEDFAVYYCQQYSDQSYTFGQGTKVEIKR
# B13: MOR04055 Fab (Fab, V domains shown)
# VH: QVQLVESGGGLVQPGGSLRLSCAASGFTFSNYAMNWVRQAPGKGLEWVSRISYSGSDTYYADSVKGRFTISRDNSKNTLYLQMNSLRAEDTAVYYCAREGEFGFMYSTLVFDSWGQGTLVTVSS
# VL: DIELTQPPSVSVAPGQTARISCSGDSIGEQYAHWYQQKPGQAPVLVIYDDNKRPSGIPERFSGSNSGNTATLTISGTQAEDEADYYCGSYTLTNTASVFGGGTKLTVLG
# B14: MOR04971 Fab (Fab, V domains shown)
# VH: QVQLVESGGGLVQPGGSLRLSCAASGFTFSNYAMNWVRQAPGKGLEWVSAIHDNGHTYYPDSVKGRFTISRDNSKNTLYLQMNSLRAEDTAVYYCAREGEFGFMYSTLVFDSWGQGTLVTVSS
# VL: DIELTQPPSVSVAPGQTARISCSGDSIGEQYAHWYQQKPGQAPVLVIYDDNKRPSGIPERFSGSNSGNTATLTISGTQAEDEADYYCSSYTYSSDASVFGGGTKLTVLG
# B15: MOR04055 IgG (antibody, V domains shown)
# VH: QVQLVESGGGLVQPGGSLRLSCAASGFTFSNYAMNWVRQAPGKGLEWVSRISYSGSDTYYADSVKGRFTISRDNSKNTLYLQMNSLRAEDTAVYYCAREGEFGFMYSTLVFDSWGQGTLVTVSS
# VL: DIELTQPPSVSVAPGQTARISCSGDSIGEQYAHWYQQKPGQAPVLVIYDDNKRPSGIPERFSGSNSGNTATLTISGTQAEDEADYYCGSYTLTNTASVFGGGTKLTVLG
# What was measured:
# human α5β1 integrin [1] = molecular target: T1, human α5β1 integrin (human, UniProt P08648 42-1049; P05556 21-798); assay: cell-based or functional assay
# T1 sequence (P08648 42-1049, chain 1 of 2): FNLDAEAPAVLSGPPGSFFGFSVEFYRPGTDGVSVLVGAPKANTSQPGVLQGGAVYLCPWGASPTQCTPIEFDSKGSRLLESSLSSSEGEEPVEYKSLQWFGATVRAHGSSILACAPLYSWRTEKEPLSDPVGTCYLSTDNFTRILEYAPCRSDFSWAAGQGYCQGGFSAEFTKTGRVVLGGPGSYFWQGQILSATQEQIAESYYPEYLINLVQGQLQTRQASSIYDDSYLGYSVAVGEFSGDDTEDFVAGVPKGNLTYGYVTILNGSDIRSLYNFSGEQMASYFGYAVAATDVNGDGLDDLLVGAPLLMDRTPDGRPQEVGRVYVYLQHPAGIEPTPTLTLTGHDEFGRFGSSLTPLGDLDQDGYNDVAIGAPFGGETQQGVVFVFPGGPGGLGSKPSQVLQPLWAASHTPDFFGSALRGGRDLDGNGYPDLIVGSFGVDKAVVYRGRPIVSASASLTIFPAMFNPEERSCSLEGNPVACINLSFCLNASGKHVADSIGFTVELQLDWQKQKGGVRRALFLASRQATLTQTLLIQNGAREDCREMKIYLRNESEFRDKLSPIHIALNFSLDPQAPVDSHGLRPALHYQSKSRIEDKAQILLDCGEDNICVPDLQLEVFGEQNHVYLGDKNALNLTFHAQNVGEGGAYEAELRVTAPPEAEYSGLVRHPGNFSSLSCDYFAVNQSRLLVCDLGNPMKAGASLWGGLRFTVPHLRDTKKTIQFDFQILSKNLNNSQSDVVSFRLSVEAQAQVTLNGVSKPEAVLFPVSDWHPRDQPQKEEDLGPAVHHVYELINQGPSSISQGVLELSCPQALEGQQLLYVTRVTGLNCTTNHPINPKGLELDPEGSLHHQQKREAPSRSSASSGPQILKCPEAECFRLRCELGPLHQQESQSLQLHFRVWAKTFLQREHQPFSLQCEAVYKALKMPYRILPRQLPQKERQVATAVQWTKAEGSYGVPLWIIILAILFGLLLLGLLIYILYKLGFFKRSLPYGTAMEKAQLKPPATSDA
# T1 sequence (P05556 21-798, chain 2 of 2): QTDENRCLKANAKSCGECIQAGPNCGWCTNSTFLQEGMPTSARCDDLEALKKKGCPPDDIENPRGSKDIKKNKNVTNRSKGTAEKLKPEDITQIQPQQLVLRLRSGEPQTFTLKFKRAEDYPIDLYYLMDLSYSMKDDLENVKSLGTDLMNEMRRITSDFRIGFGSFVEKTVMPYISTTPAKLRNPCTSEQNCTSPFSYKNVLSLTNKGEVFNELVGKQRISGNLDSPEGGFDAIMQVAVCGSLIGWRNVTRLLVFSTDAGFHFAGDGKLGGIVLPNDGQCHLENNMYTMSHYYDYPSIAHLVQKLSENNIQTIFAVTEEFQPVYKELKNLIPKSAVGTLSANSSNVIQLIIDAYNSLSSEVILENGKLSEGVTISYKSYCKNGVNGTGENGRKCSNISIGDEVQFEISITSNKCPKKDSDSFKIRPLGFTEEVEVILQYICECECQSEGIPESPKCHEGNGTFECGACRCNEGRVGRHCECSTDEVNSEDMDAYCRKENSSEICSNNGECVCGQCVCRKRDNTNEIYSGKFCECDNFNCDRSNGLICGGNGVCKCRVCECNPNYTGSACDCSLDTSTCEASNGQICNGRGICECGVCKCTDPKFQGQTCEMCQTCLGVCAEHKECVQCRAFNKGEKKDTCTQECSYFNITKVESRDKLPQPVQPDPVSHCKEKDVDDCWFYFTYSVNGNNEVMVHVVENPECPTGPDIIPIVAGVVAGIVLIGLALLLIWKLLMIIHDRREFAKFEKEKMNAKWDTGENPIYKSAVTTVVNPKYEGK
# human α5β1 integrin [2] = molecular target: T1, human α5β1 integrin; assay: FACS titration on α5β1-positive HUVEC cells, monovalent Fab
# human α5β1 integrin [3] = molecular target: T1, human α5β1 integrin; assay: cell-based or functional assay; remark: listed apart in the source
# [4] = molecular target: T2, β1-integrin chain on HT29 wt cells (α5-chain negative) (human, UniProt P05556 21-798); assay: FACS, HT29 cells (α5-chain negative)
# T2 construct: whole, on cells; Negative cell control: β1 present at high density, α5 absent
# T2 sequence (P05556 21-798): as the sequence (P05556 21-798, chain 2 of 2) above
# human α5β1 integrin [5] = molecular target: T1, human α5β1 integrin; assay: FACS titration on α5β1-positive HUVEC cells, IgG
# [6] = molecular target: T2, β1-integrin chain on HT29 wt cells …; assay: immunoprecipitation from NP40 lysate of surface-biotinylated HT29 wt cells; streptavidin-AP blot
# Experimental: Surface-biotinylated NP40-lysates of HT29α5 and HT29 wt were incubated with Fab coupled to magnetic Dyna beads. The immunoprecipitates were transferred to PVDF-membranes and analysed with streptavidin alkaline phosphatase (AP).
# IIA1 was used as a reference antibody. After intensive washing the precipitates were boiled in SDS-PAGE sample buffer under reducing conditions, blotted to PVDF-membranes and probed with streptavidine-AP. All anti-α5β1 integrin antibodies specifically precipitated a protein double kband of […] which corresponds to the expected molecular weight of the integrin chains α5 and β1 (FIG. 11) and was not found in the HT29 wt cell lysate. The same double band was found with IIA1.
# human α5β1 integrin [7] = molecular target: T1, human α5β1 integrin; assay: cell-based or functional assay; remark: listed apart in the source
binder,measurement,setting,value
B1,"IC50, XTT-proliferation assay on HUVEC",human α5β1 integrin [1],11.2 µg/ml and 225 nM
same,Kd,human α5β1 integrin [2],7.5 nM
B2,"IC50, transwell migration of HUVEC towards fibronectin",human α5β1 integrin [3],1.5 µg/mL
B3,"IC50, transwell migration of HUVEC towards fibronectin",human α5β1 integrin [3],1 µg/mL
B4,"IC50, transwell migration of HUVEC towards fibronectin",human α5β1 integrin [3],1 µg/mL
B5,binding result,[4],no binding
same,Kd,human α5β1 integrin [5],3.1 nM
B6,"IC50, XTT-proliferation assay on HUVEC",human α5β1 integrin [1],0.06 µg/ml and 1.2 nM
same,binding result,[6],no binding
B7,"EC50, inhibition of HUVEC adhesion to fibronectin",human α5β1 integrin [7],0.33 µg/ml and 2 nM
same,binding result,[4],no binding
B8,"EC50, inhibition of HUVEC adhesion to fibronectin",human α5β1 integrin [7],0.5 µg/ml and 3.3 nM
same,binding result,[4],no binding
B9,"IC50, XTT-proliferation assay on HUVEC",human α5β1 integrin [1],0.09 µg/ml and 1.8 nM
same,binding result,[6],no binding
B10,"EC50, inhibition of HUVEC adhesion to fibronectin",human α5β1 integrin [7],0.4 µg/ml and 2.6 nM
same,binding result,[4],no binding
B11,"IC50, XTT-proliferation assay on HUVEC",human α5β1 integrin [1],0.09 µg/ml and 1.9 nM
same,binding result,[6],no binding
B12,"IC50, XTT-proliferation assay on HUVEC",human α5β1 integrin [1],0.09 µg/ml and 1.8 nM
same,binding result,[6],no binding
B13,Kd,human α5β1 integrin [2],0.9 nM
B14,"IC50, XTT-proliferation assay on HUVEC",human α5β1 integrin [1],0.21 µg/ml and 4.3 nM
same,binding result,[6],no binding
B15,Kd,human α5β1 integrin [5],0.5 nM
